Results as given in patent US8481255B2, “Scytovirin domain 1 related polypeptides” (The United States of America, as represented by the …, priority 2005, dated 2013).

Legend:
[1] = tested on: CEM-SS cells
Description: (§1) The protocol followed was the same as described in Gulakowski et al., J. Virol. Methods, 33: 87-100 (1991).

[2] = tested on: HIV-1RF; assay: XTT-tetrazolium based anti-HIV assay, acute HIV-1 infection in CEM-SS cells; assay type: cell-based; settings: T-tropic laboratory strain HIV-1RF in CEM-SS cells; read-out: EC50 against HIV-1RF
Description: as §1
The deletion mutants were subjected to the XTT-tetrazolium based assay as described in Example 2.

[3] = target: HIV-1 gp120 (Human immunodeficiency virus type 1 group M subtype B, UniProt P03375); settings: 100 ng/well gp120, absorbance at 450 nm
Protocol: (§2) Briefly, the 100 ng/well of either gp120 and gp41 proteins was bound to a 96-well plate, which was then rinsed with PBS containing 0.05% Tween 20 (TPBS) and blocked with BSA. Between each subsequent step, the plate was again rinsed with TPBS (x3). […] Upon addition of the horseradish peroxidase substrate buffer and color formation, the reaction was stopped by the addition of 2M H2SO4 (after 5 minutes for the gp120 plate and 15 minutes for the gp41 plate) and absorbance was measured at 450 nm for each well.

[4] = target: HIV-1 gp41 ectodomain (Human immunodeficiency virus type 1 group M subtype B, UniProt P03375); settings: 100 ng/well gp41, absorbance at 450 nm
Protocol: as §2

[5] = tested on: HIV gp120; settings: 100 μM sugar or 100 μg/well α-acid glycoprotein; 100 ng/well peptide
Protocol: (§3) Scytovirnin specifically binds to a α-1-2, α1-2, α1-6-linked tetramannoside, a substructure of oligomannose-8 and -9 found on HIV envelope glycoproteins gp120 and gp41 (Adams et al., Chem. Biol., 11(6): 875-881 (2004)). […] Briefly, a 96-well plate was prepared as described in Example 1 with glycosylated gp120 or gp41 and 100 ng/well of scytovirin or a scytovirin-derived peptide. […] Each well also contained (a) various concentrations of oligomannose-8, (b) 100 μM of glucose, mannose, galactose, xylose, or N-acytylglucosamine, or (c) 100 μg/well α-acid glycoprotein (to act as a carrier for sialic acid). The plate was then washed and visualized using anti-scytovirin polyclonal antibodies as described in Example 1.

[6] = tested on: gp41; settings: various concentrations of oligomannose-8
Protocol: as §3

Molecule: SD1: polypeptide of SEQ ID NO: 1, derived from amino acids 1-48 of scytovirin (scytovirin domain 1) (GSGPTYSWNEANNPGGPNRCSNNKQCDGARTCSSSGFCQGTSRKPDPG)
- toxicity to the CEM-SS cell line, not detected at concentrations up to [1]: > 10,000 nM
- EC50 [2]: 6.6 nM
- binding affinity to gp120 (ELISA) [3]: approximately the same affinity
- binding affinity to gp41 (ELISA) [4]: approximately the same affinity
- inhibition of binding to gp120 by glucose, mannose, galactose, xylose, N-acytylglucosamine, α-acid glycoprotein with sialic acid [5]: not able to inhibit binding
- inhibition of binding to gp41 by oligomannose-8 [6]: able to inhibit the binding of SD1 to gp41 in a concentration-dependent manner

B1: scytovirin: antiviral scytovirin polypeptide, SEQ ID NO: 4 (protein, listed as Scytonema varium)
chain: GSGPTYCWNEANNPGGPNRCSNNKQCDGARTCSSSGFCQGTSRKPDPGPKGPTYCWDEAKNPGGPNRCSNSKQCDGARTCSSSGFCQGTAGHAAA
- toxicity to the CEM-SS cell line, not detected at concentrations up to [1]: > 10,000 nM
- EC50 [2]: 7.5 nM
- binding affinity to gp120 (ELISA) [3]: approximately the same affinity
- binding affinity to gp41 (ELISA) [4]: approximately the same affinity
